Test results from patent US20140335568.

Legend:
[1] = tested on: scFv clone C1 (anti-dsDNA d(AT)4 recombinant antibody) (synthetic (Tomlinson I/J human scFv phage library)); assay: competition; conditions: competition ELISA against immobilized 35 bp dsDNA, 50% reduction, 1.25x10^7 M-1; discussion gives about 50-80 nM
[2] = tested on: scFv clone C1 (anti-dsDNA d(AT)4 recombinant antibody) (synthetic (Tomlinson I/J human scFv phage library)); assay: ELONA; conditions: ELISA

Sequence | Kd [1] [nM] | IC50 ([2]; varying immobilized dsDNA at fixed scFv (3 uM)) [nM] | IC50 ([2]; varying scFv with 25 pmol immobilized dsDNA, single site isotherm, 5xSSCT immobilization, RT) [nM]
ATATATATCCTAGAACGACAGACAAACAGTGAGTCCGCATTGTTACAT (double strand) [Icomp (Icomp:Icomp')] | 80 | – | –
AAAAGACTCACTGTTTGTCTGTCGTTCTAGGATATATAT / ATATATATCCTAGAACGACAGACAAACAGTGAGTC [35 bp dsDNA epitope (ssDNA:ssDNA')] | – | 31 | 238
